How the values were obtained:
[1] = biological target: T1, full-length TEN2 expressed on HEK293T cells (UniProt Q9NT68 1-2774); test: flow cytometry on cells; biotinylated ADGRL3 Lec domain titrated on HEK293T cells expressing full-length TEN2, detected with DyLight 650 neutravidin; conditions: one partner purified
T1 construct: teneurin-2 (TEN2), full length; Co-transfected with dsRed in the cell aggregation assay; also called FL TEN2; teneurin; source: HEK293T, transfected, on the cell surface
T1 sequence (Q9NT68 whole entry, the tested form may be a part): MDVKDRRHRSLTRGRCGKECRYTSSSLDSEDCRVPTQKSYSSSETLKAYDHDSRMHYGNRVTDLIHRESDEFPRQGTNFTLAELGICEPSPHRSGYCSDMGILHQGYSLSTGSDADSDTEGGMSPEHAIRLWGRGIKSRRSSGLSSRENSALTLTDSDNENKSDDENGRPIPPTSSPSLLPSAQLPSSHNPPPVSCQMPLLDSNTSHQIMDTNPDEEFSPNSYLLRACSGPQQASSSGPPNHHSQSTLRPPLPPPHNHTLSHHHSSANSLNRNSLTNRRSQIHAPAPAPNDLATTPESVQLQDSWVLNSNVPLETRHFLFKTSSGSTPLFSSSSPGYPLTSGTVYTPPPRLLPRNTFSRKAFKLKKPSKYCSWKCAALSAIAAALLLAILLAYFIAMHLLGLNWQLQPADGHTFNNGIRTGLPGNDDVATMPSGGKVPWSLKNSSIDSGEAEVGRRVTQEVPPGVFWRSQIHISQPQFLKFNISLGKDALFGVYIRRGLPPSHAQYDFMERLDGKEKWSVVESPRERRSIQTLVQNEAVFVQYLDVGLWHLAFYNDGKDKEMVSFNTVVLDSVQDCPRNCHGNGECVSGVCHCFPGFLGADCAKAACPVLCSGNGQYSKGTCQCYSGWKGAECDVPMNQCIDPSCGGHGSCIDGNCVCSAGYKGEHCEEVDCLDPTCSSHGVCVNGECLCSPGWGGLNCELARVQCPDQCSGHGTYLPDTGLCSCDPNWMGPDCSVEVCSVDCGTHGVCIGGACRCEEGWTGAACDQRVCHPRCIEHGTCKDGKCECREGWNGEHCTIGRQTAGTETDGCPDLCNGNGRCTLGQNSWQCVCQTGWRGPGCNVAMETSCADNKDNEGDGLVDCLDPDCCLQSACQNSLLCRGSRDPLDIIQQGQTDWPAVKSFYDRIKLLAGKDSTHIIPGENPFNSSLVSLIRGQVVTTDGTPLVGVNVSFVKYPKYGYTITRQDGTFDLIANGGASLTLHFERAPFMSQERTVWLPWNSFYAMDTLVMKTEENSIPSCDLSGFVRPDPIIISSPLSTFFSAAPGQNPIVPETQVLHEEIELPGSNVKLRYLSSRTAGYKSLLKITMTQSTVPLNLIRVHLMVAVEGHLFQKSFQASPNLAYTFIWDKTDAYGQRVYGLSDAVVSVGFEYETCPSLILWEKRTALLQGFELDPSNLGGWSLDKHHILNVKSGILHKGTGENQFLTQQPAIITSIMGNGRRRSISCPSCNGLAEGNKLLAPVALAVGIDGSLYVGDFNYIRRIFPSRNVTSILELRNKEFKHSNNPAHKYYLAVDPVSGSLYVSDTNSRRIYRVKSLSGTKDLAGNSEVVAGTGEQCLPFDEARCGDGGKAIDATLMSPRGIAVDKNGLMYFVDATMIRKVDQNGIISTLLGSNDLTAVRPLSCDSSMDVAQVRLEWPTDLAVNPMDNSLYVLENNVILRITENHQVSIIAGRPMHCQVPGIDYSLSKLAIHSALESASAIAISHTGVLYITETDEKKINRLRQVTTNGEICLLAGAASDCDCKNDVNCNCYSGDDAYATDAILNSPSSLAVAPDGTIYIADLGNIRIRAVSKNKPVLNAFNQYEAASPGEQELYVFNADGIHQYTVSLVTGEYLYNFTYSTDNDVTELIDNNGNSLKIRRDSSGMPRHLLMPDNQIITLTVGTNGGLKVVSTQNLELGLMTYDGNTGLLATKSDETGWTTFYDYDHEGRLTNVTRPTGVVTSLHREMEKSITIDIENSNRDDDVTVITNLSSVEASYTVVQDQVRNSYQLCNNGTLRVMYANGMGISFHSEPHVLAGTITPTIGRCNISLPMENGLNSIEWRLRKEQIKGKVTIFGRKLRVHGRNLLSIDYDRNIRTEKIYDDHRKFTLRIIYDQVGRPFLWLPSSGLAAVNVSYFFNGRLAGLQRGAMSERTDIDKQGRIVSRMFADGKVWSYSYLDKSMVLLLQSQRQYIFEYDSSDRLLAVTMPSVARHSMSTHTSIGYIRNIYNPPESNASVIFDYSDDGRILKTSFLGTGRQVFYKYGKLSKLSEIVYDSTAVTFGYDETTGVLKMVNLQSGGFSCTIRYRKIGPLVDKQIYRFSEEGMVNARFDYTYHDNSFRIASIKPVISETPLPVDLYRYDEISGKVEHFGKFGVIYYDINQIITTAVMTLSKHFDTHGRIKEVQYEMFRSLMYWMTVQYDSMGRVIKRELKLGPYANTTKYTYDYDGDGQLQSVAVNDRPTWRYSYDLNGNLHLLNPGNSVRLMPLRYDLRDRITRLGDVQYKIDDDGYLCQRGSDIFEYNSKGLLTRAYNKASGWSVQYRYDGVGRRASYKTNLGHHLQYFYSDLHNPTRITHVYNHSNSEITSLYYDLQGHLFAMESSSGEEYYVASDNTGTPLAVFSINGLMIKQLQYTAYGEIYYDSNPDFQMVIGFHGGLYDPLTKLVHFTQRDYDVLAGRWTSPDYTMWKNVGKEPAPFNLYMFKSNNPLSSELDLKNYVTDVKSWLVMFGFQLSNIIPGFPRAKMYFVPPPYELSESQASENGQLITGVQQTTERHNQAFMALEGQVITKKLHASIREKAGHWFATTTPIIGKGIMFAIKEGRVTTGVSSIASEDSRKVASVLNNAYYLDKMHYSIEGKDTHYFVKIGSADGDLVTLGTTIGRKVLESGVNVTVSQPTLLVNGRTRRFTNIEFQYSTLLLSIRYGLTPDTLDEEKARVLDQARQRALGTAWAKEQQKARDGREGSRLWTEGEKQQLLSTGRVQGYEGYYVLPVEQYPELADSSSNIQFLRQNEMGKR

[2] = biological target: T2, Lec domain of ADGRL3 (human, UniProt Q9HAR2, biotin on the Avi-tag (BirA) in the flow cytometry experiments); test: flow cytometry on cells; competition: 5 µM ADGRL3 Lec domain pre-bound to TEN2 on HEK293T cells, increasing concentrations of LK30; row of LK30 with the Lec domain; conditions: both partners purified
T2 construct: ADGRL3 (Latrophilin3), human, N-terminal Lectin (Lec) domain; also called ADGRL3Lec; lectin domain of ADGRL3; source: High Five insect cells (baculovirus), secreted, purified (Ni-NTA, SEC)

[3] = biological target: T3, full-length ADGRL3 expressed on HEK293T cells (human, UniProt Q9HAR2); test: flow cytometry on cells; HEK293T cells expressing full-length receptor, increasing concentrations of LK30, 30 min at 4 °C, detected with Alexa Fluor 647 anti-human F(ab')2; apparent affinity from MFI; conditions: one partner purified
T3 construct: ADGRL3 (Latrophilin3), human, full length; splice form +SSA (with the insert KVEQK between Lec and Olf); the receptor is autoproteolytically cleaved in the GAIN domain and the two fragments stay associated; co-transfected with GFP in the cell aggregation assay; also called Latrophilin3; ADGRL3 +SSA; source: HEK293T, transfected, on the cell surface; not shown: FLAG, N-terminal, kept
T3 sequence (Q9HAR2 20-1447): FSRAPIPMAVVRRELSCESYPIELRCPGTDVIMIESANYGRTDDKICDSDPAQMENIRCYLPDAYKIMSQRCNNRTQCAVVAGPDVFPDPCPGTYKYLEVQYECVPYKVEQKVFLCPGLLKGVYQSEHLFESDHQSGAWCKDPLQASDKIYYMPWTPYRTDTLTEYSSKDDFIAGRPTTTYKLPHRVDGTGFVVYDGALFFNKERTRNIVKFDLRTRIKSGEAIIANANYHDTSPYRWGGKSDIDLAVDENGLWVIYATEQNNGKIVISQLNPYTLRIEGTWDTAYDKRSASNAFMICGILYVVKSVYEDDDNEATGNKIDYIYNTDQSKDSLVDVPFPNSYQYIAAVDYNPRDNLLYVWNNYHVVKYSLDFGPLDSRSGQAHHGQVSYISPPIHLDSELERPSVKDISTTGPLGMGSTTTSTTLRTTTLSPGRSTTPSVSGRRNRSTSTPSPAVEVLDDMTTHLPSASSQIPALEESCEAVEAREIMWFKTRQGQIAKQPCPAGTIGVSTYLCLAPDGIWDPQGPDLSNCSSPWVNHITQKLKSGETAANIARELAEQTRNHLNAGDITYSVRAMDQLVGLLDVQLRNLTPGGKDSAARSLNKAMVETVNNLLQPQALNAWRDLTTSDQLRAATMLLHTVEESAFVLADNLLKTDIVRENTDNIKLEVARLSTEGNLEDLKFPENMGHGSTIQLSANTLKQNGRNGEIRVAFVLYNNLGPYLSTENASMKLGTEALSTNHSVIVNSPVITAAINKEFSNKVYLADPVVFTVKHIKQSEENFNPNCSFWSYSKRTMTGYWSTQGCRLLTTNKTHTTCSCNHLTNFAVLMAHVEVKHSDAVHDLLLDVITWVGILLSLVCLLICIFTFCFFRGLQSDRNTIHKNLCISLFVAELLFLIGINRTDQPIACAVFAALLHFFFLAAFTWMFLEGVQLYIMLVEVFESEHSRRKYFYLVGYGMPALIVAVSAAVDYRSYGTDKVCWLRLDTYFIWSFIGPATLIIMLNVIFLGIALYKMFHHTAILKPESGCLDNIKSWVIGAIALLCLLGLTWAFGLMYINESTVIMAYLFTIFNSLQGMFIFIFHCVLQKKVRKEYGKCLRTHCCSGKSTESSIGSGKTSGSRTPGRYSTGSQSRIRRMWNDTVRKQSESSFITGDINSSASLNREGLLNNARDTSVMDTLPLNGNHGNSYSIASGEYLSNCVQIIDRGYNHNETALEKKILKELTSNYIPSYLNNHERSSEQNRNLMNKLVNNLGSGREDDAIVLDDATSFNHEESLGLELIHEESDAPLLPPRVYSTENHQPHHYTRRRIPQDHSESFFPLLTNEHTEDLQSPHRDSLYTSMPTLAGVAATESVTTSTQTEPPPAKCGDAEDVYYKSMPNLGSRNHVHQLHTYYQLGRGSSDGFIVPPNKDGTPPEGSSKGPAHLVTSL

[4] = biological target: T4, full-length ADGRL1 expressed on HEK293T cells (Rattus norvegicus (assumed for …, UniProt O88917)); test: as above; conditions: one partner purified
T4 construct: ADGRL1 (Latrophilin1), full length; also called Latrophilin1; source: HEK293T, transfected, on the cell surface; not shown: FLAG, N-terminal, kept

[5] = biological target: T3, full-length ADGRL3 expressed on HEK293T …; test: cell-based or functional assay
[6] = biological target: T5, Lec domain of ADGRL1 (Rattus norvegicus, UniProt O88917); test: SPR; targets immobilised via His-tag on NTA sensor chip, sAB injected in 2-fold serial dilutions (25, 12.5, 6.25, 3.125 nM), RT, MASS-1 instrument, one-to-one Langmuir fit; conditions: both partners purified
T5 construct: ADGRL1 (Latrophilin1), rat, Lectin (Lec) domain; In the ELISA the target was held on a neutravidin plate, so it was probably biotinylated; also called Lec domain from ADGRL1; ADGRL1 lectin domain; source: baculovirus method (all proteins); not further stated for this fragment

[7] = biological target: T2, Lec domain of ADGRL3; test: as above; conditions: both partners purified

B1: Lec domain of ADGRL3 (domain or fragment, human)
chain: PIPMAVVRRELSCESYPIELRCPGTDVIMIESANYGRTDDKICDSDPAQMENIRCYLPDAYKIMSQRCNNRTQCAVVAGPDVFPDPCPGTYKYLEVQYECVPY
modifications: biotin on the Avi-tag (BirA) in the flow cytometry experiments
notes: ADGRL3 (Latrophilin3), human, N-terminal Lectin (Lec) domain; also called ADGRL3Lec; lectin domain of ADGRL3; source: High Five insect cells (baculovirus), secreted, purified (Ni-NTA, SEC)
- Kd [1]: 129 nM

B2: synthetic antibody fragment (sAB) LK30 (Fab, V domains shown)
VH: EVQLVESGGGLVQPGGSLRLSCAASGFNIYYSSIHWVRQAPGKGLEWVAYISPYSGSTSYADSVKGRFTISADTSKNTAYLQMNSLRAEDTAVYYCARYKYGQGHMGAFDYWGQGTLVTVSS
VL: DIQMTQSPSSLSASVGDRVTITCRASQSVSSAVAWYQQKPGKAPKLLIYSASSLYSGVPSRFSGSRSGTDFTLTISSLQPEDFATYYCQQSNTELVTFGQGTKVEIK
notes: heavy chain (HC) of LK30 in the deposited structure PDB 8DJG; selected from synthetic phage library E on a humanized antibody Fab scaffold; light chain (LC) of LK30 in the deposited structure PDB 8DJG; Fab format (sAB) expressed from vector pRH2.2; source: E. coli BL21 (Gold), purified (protein L, Resource S ion exchange)
- IC50 [2]: 193 nM
- Kd [3]: 131 nM
- Kd [4]: 147 nM
- SRE-luciferase assay in HEK293T cells transfected with ADGRL3, 1 µM LK30: fold increase over basal activity [5]: ~2.5 fold
- SRE-luciferase assay in HEK293T cells transfected with ADGRL3, titration of LK30: EC50 [5]: 42 nM
- Kd [6]: 11 nM
- Kd [7]: 7 nM

Source: publication PMC9902482, “Isoform- and ligand-specific modulation of the adhesion GPCR ADGRL3/Latrophilin3 by a synthetic binder” (Nature Communications, 2023)
